What was measured:
[1] = target: T1, soluble human IL-6 receptor (human, UniProt P08887 20-357); test: Biacore SPR, 3 uM CaCl2, pH 7.4, 37C, estimated
T1 construct: also called hsIL-6R
T1 sequence: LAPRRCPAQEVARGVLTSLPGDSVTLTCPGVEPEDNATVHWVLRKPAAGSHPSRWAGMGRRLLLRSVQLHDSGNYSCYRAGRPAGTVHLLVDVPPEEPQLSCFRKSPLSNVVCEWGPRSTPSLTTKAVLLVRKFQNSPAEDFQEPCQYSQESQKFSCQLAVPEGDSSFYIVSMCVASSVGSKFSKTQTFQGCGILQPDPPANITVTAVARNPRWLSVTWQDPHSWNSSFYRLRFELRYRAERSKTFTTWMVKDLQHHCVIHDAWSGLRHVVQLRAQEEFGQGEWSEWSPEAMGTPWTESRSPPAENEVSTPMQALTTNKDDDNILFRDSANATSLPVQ
Description: (§1) The kinetic analysis of the antigen-antibody reactions was conducted in solutions with 2 mM and 3 μM calcium ion concentrations, set as high and low calcium ion concentration conditions, respectively. The antibody of interest was captured on Sensor chip CM4 (GE Healthcare) on which an appropriate amount of protein A (Invitrogen) was immobilized by an amine coupling method. Two buffers [10 mM N-(2-acetamido)-2-aminoethanesulfonic acid (ACES), 150 mM NaCl, 0.05% (w/v) polysorbate 20 (Tween 20®), and 2 mM CaCl₂ (pH 7.4) or 10 mM ACES, 150 mM NaCl, 0. 05% (w/v) polysorbate 20 (Tween 20®), and 3 μmol/L CaCl₂ (pH 7.4)] were used as running buffers. These buffers were used for diluting human IL-6 receptor. All the measurements were conducted at 37° C.
(§2) Subsequently, the sensor chip was regenerated by injecting 10 mM glycine-HCl (pH 1.5) at a flow rate 30 μL/min for 30 seconds.

[2] = target: T1, soluble human IL-6 receptor; test: Biacore SPR, 3 uM CaCl2, pH 7.4, 37C, estimated from Req and Rmax
Description: as §1, §2

human FcγRIIa(R) = target: T2, human FcγRIIa(R) (human, UniProt P12318 36-217); test: SPR, antibody captured on the chip, FcγR as analyte, HBS-EP+, 25 C; amount bound corrected for captured antibody
T2 construct: also called hFcgRIIa(R); FcγRIIa type R
T2 chain: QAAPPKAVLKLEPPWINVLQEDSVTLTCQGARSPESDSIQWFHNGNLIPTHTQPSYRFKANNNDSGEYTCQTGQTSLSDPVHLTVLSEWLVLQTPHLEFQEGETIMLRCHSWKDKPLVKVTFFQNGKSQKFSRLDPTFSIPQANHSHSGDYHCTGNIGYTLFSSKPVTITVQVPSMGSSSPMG
Description: (§3) Interaction between each modified antibody and Fcγ receptor prepared in the manner described above was analyzed using the BIACORE™ T100 surface plasmon resonance system (GE Healthcare), BIACORE™ T200 surface plasmon resonance system (GE Healthcare), BIACORE™ A100 surface plasmon resonance system or BIACORE™ 4000 surface plasmon resonance system. HBS-EP+ (GE Healthcare) was used for the running buffer, and measurements were carried out at 25° C. The chips used were chips in which antigen peptides, Protein A (Thermo Scientific), Protein A/G (Thermo Scientific) or Protein L (ACTIGEN® protein (Alltech or BioVision) were immobilized on the Series S Sensor Chip CMS (GE Healthcare) or Series S Sensor Chip CM4 (GE Healthcare) by amine coupling, or chips in which preliminarily biotinylated antigen peptides were allowed to interact and then immobilized on the Series S Sensor Chip SA (certified) (GE Healthcare). The target antibodies were captured on these sensor chips, Fcγ receptor diluted with the running buffer was allowed to interact, followed by measurement of the amount of bound antibody. The amounts bound were compared between antibodies. However, since the amount of Fcγ receptor bound depends on the amount of captured antibody, the values used for comparison were first corrected by dividing the amount of Fcγ receptor bound by the captured amount of each antibody. Through reaction with 10 mM glycine-HCl at pH 1.5, the sensor chips were regenerated by washing off antibody captured on the sensor chips and used repeatedly.

human FcγRIIa(H) = target: T3, human FcγRIIa(H) (human, UniProt P12318 36-217); test: as above
T3 construct: also called hFcgRIIa(H); FcγRIIa type H
T3 sequence: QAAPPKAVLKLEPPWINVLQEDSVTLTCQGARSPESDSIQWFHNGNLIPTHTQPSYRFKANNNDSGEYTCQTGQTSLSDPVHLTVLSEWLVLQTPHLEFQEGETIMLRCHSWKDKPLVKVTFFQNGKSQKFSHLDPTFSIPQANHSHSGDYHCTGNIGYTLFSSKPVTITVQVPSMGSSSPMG
Description: as §3

human FcγRIa [3] = target: T4, human FcγRIa (human, UniProt P12314 16-292, limits assumed); test: as above
T4 construct: also called hFcgRIa; hFcgRI
T4 sequence (P12314 16-292 limits assumed): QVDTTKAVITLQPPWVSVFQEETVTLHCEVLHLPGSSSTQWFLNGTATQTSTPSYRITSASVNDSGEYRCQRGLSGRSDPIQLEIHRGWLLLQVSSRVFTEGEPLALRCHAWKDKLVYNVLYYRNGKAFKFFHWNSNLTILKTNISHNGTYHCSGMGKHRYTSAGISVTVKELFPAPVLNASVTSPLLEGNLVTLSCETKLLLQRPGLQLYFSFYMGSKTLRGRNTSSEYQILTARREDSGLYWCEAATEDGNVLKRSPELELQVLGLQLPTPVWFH
Description: as §3

human FcγRIIb [4] = target: T5, human FcγRIIb (human, UniProt P31994 43-217, limits assumed); test: as above
T5 construct: also called hFcgRIIb; FcγIIB
T5 sequence: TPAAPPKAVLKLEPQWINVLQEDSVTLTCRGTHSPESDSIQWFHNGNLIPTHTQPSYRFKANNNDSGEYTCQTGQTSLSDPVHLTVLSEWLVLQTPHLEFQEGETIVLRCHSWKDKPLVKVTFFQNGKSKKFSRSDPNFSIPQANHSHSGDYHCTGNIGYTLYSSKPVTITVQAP
Description: as §3

human FcγRIIb [5] = target: T6, human FcγRIIb (human, UniProt P31994 43-217, limits assumed); test: SPR (Biacore), antibody captured, FcγR as analyte
T6 construct: also called FcγIIB
T6 sequence: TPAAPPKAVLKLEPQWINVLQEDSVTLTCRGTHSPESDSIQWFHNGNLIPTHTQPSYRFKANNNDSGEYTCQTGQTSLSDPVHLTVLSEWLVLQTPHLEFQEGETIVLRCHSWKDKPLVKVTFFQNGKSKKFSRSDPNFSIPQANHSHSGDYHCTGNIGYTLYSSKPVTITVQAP

human FcγRIIa type R = target: T7, human FcγRIIa type R (human, UniProt P12318 36-217); test: SPR (Biacore), antibody captured, FcγR as analyte
T7 construct: also called FcγRIIaR; FcγRIIa(R)
T7 chain: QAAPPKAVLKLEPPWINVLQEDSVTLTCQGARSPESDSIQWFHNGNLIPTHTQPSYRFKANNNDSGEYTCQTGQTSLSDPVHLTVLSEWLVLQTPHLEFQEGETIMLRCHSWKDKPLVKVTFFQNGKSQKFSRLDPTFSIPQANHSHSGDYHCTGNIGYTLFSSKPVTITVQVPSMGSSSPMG

human FcγRIIa type H = target: T8, human FcγRIIa type H (human, UniProt P12318 36-217); test: SPR (Biacore), antibody captured, FcγR as analyte
T8 construct: also called FcγRIIaH; FcγRIIa(H)
T8 sequence: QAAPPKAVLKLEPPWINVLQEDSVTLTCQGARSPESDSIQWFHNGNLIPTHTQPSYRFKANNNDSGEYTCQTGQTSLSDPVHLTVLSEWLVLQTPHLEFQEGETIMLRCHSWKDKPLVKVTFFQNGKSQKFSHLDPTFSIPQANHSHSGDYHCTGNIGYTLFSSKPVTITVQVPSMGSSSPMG

human FcγRIa [6] = target: T9, human FcγRIa (human, UniProt P12314 16-292, limits assumed); test: SPR (Biacore), antibody captured, FcγR as analyte
T9 construct: also called CD64
T9 sequence (P12314 16-292 limits assumed): as the sequence (P12314 16-292 limits assumed) above

human FcγRIIb [7] = target: T6, human FcγRIIb; test: SPR (Biacore); ratio against parent IL6R-F11/IL6R-L
human FcγRIIb [8] = target: T6, human FcγRIIb; test: SPR (Biacore); KD for FcγRIIaR divided by KD for FcγRIIb of the same antibody
human FcγRIIb [9] = target: T6, human FcγRIIb; test: SPR (Biacore); KD for FcγRIIaH divided by KD for FcγRIIb of the same antibody
FcγRIIb [10] = target: T10, FcγRIIb (human, UniProt P31994 43-217, limits assumed); test: ratio of SPR KDs: KD for FcγRIIaH over KD for FcγRIIb
T10 construct: SPR analyte; also called FcγIIB; CD32
T10 sequence: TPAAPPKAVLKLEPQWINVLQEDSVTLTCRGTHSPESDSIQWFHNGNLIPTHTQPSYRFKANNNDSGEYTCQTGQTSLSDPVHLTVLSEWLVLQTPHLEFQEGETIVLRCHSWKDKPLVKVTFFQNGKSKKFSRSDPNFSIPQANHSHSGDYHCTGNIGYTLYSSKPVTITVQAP
Excerpt: (§4) Furthermore, KD(IIaR)/KD(IIb) and KD(IIaH)/KD(IIb) in the table respectively represent the value obtained by dividing the KD value of each variant for FcγRIIaR by the KD value of each variant for FcγRIIb, and the value obtained by dividing the KD value of each variant for FcγRIIaH by the KD value of each variant for FcγRIIb.

FcγRIIa type H [11] = target: T11, FcγRIIa type H (human, UniProt P12318 36-217); test: ratio of SPR KDs; stronger receptor here FcγRIIaH; reference IL6R-B3/IL6R-L (FcγRIIaH)
T11 construct: SPR analyte; also called FcγRIIaH
T11 sequence: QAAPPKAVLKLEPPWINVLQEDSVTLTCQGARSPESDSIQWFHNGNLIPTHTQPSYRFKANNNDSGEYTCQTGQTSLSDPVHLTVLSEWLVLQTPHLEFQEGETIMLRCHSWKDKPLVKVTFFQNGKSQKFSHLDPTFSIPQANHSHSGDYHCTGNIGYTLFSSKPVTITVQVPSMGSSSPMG

FcγRIIb [12] = target: T10, FcγRIIb; test: ratio of SPR KDs: KD for FcγRIIaR over KD for FcγRIIb
Excerpt: as §4

FcγRIIIa type V = target: T12, FcγRIIIa type V (human, UniProt P08637 17-208, limits assumed); test: SPR (Biacore), antibody captured, FcγR analyte
T12 construct: SPR analyte; allotype V158 was used here; also called FcγRIIIaV; FcγRIIIa(V)
T12 sequence (P08637 other isoform, or with tags, fused parts or gaps limits assumed): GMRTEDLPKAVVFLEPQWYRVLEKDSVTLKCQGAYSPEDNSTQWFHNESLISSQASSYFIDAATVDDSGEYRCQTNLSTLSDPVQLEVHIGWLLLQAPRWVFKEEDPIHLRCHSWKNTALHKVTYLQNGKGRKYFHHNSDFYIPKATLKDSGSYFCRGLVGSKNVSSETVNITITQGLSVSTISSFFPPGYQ
Excerpt: (§5) Furthermore, KD(IIaR)/KD(IIb) and KD(IIaH)/KD(IIb) in the table respectively represent the value obtained by dividing the KD value of each variant for FcγRIIaR by the KD value of each variant for FcγRIIb, and the value obtained by dividing the KD value of each variant for FcγRIIaH by the KD value of each variant for FcγRIIb. KD(IIb) of the parent polypeptide/KD(IIb) of the altered polypeptide refers to the value obtained by dividing the KD value of the parent polypeptide for FcγRIIb by the KD value of each variant for FcγRIIb.

FcγRIIa type H [13] = target: T11, FcγRIIa type H; test: SPR (Biacore), antibody captured, FcγR analyte
Excerpt: as §5

FcγRIa = target: T13, FcγRIa (human, UniProt P12314 16-292, limits assumed); test: SPR (Biacore), antibody captured, FcγR analyte
T13 construct: SPR analyte; also called CD64
T13 sequence (P12314 16-292 limits assumed): as the sequence (P12314 16-292 limits assumed) above
Excerpt: as §5

FcγRIIa type R = target: T14, FcγRIIa type R (human, UniProt P12318 36-217); test: SPR (Biacore), antibody captured, FcγR analyte
T14 construct: SPR analyte; also called FcγRIIaR; FcγRIIa(R)
T14 chain: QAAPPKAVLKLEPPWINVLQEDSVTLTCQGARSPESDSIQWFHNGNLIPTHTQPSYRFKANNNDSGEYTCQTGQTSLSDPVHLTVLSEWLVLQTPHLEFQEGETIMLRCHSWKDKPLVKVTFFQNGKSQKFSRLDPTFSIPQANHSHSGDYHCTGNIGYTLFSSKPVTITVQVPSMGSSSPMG
Excerpt: as §5

FcγRIIb [14] = target: T10, FcγRIIb; test: SPR (Biacore), antibody captured, FcγR analyte
Excerpt: as §5

FcγRIIb [15] = target: T10, FcγRIIb; test: ratio of SPR KDs; reference IL6R-B3/IL6R-L

B1: FH4-IgG1 (antibody, V domains shown)
VH: QVQLVQSGAEVKKPGSSVKVSCKASGGTFSSYAISWVRQAPGQGLEWMGGIIPIFGTANYAQKFQGRVTITADESTSTAYMELSSLRSEDTAVYYCARERDYYDSSGYYDAFDIWGQGTMVTVSS
VL: ETTVTQSPSFLSASVGDRVTITCITTTDIDDDMNWFQQEPGKAPKLLISEGNILRPGVPSRFSSSGYGTDFTLTISKLQPEDFATYYCLQSDNLPFTFGQGTKLEIKR
[1]
  Kd: ≥ 34 µM
[2]
  Kd: ~34 µM

B2: 6RL#9-IgG1 (antibody, V domains shown, not shown: a dimerising Fc or GST)
VH: QVQLVQSGAEVKKPGASVKVSCKASGYTFTSYYMHWVRQAPGQGLEWMGIINPSGGSTSYAQKFQGRVTMTRDTSTSTVYMELSSLRSEDTAVYYCARDDPGGGEYYFDYWGQGTLVTVSS
VL: QSVLTQPPSVSGAPGQRVTISCTGSRSNMGAGYDVHWYQLLPGAAPKLLISHNTHRPSGVPDRFSGSKSGASASLAITGLQAEDEADYYCQSHDSSLSAVVFGGGTKLTVLS
[1]
  Kd: ≥ 31 µM
[2]
  Kd: ~31 µM

B3: GpH7-G1d/GpL16-k0 (antibody, human IgG1)
heavy: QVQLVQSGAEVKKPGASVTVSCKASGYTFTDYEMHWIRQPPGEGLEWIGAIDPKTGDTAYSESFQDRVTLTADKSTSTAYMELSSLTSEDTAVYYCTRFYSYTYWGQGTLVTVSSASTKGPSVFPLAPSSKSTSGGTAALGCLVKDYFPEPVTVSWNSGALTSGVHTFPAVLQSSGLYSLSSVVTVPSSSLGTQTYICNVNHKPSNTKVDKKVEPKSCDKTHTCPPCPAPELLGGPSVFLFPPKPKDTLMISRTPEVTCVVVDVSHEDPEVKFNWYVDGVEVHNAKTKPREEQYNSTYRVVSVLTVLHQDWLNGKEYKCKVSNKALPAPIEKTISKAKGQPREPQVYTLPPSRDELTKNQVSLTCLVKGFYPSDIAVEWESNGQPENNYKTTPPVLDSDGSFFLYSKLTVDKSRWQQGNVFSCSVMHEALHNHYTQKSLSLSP
light: DIVMTQSPLSLPVTPGEPASISCQASESLVHSNRNTYLHWYLQKPGQSPQLLIYKVSNRFSGVPDRFSGSGSGTDFTLKISRVEAEDVGVYYCSQNTHVPPTFGQGTKVEIE
notes: anti-glypican-3 antibody; G1d is IgG1 with Gly and Lys deleted from the C terminus; copies: 2 + 2
Human FcγRIIa(R)
  relative binding activity (GpH7-G1d/GpL16-k0 = 100): 100
Human FcγRIIa(H)
  relative binding activity (GpH7-G1d/GpL16-k0 = 100): 100
Human FcγRIa [3]
  relative binding activity (GpH7-G1d/GpL16-k0 = 100): 100
Human FcγRIIb [4]
  relative binding activity (GpH7-G1d/GpL16-k0 = 100): 100

B4: GpH7-B3/GpL16-k0 (antibody, human IgG1)
heavy: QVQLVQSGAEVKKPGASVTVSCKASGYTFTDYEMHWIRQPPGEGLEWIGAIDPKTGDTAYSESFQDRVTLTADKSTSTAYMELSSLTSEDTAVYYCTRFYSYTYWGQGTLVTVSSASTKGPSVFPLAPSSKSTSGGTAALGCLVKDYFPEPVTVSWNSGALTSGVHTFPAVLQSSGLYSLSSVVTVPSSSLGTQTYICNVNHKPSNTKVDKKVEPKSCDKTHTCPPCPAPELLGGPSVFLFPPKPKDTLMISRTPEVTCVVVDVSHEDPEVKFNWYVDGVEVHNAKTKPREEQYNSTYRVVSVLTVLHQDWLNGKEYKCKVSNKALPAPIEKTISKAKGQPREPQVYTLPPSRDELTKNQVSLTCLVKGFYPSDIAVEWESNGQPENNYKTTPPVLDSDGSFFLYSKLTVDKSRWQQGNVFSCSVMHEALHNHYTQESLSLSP
light: DIVMTQSPLSLPVTPGEPASISCQASESLVHSNRNTYLHWYLQKPGQSPQLLIYKVSNRFSGVPDRFSGSGSGTDFTLKISRVEAEDVGVYYCSQNTHVPPTFGQGTKVEIE
notes: anti-glypican-3 antibody, constant region G1d with K439E; copies: 2 + 2
Human FcγRIIa(R)
  relative binding activity (GpH7-G1d/GpL16-k0 = 100): 94
Human FcγRIIa(H)
  relative binding activity (GpH7-G1d/GpL16-k0 = 100): 92
Human FcγRIa [3]
  relative binding activity (GpH7-G1d/GpL16-k0 = 100): 109
Human FcγRIIb [4]
  relative binding activity (GpH7-G1d/GpL16-k0 = 100): 88

B5: IL6R-F11/IL6R-L (antibody, human IgG1)
heavy: not shown
light: DIQMTQSPSSLSASVGDRVTITCRASQDISSYLNWYQQKPGKAPKLLIYYTSRLHSGVPSRFSGSGSGTDFTFTISSLQPEDIATYYCQQGNTLPYTFGQGTKVEIK
notes: IL6R-G1d with M252Y/N434Y (EU numbering)
Human FcγRIIb [5]
  Kd: 6.8 µM
Human FcγRIIa type R
  Kd: 5 µM
Human FcγRIIa type H
  Kd: 5 µM
Human FcγRIa [6]
  Kd: 0.0009 µM
Human FcγRIIb [7]
  KD(IIb) of parent polypeptide/KD(IIb) of altered polypeptide: 1
Human FcγRIIb [8]
  KD(IIaR)/KD(IIb): 0.7
Human FcγRIIb [9]
  KD(IIaH)/KD(IIb): 0.7

B6: IL6R-B3/IL6R-L (antibody, human IgG1)
heavy: not shown
light: DIQMTQSPSSLSASVGDRVTITCRASQDISSYLNWYQQKPGKAPKLLIYYTSRLHSGVPSRFSGSGSGTDFTFTISSLQPEDIATYYCQQGNTLPYTFGQGTKVEIK
notes: IL6R-G1d with K439E (EU numbering); also called parent polypeptide
FcγRIIb [10]
  KD(IIaH)/KD(IIb): 0.2
FcγRIIa type H [11]
  KD of the stronger of FcγRIIaR/FcγRIIaH binding of the variant / that of the parent polypeptide: 1
FcγRIIb [12]
  KD(IIaR)/KD(IIb): 0.3
FcγRIIIa type V
  Kd: 0.33 µM
FcγRIIa type H [13]
  Kd: 0.77 µM
FcγRIa
  Kd: 0.00042 µM
FcγRIIa type R
  Kd: 1.1 µM
FcγRIIb [14]
  Kd: 3.1 µM
FcγRIIb [15]
  KD(IIb) of the parent polypeptide/KD(IIb) of altered polypeptide: 1

B7: IL6R-G1d/IL6R-L (antibody, human IgG1)
heavy: not shown
light: DIQMTQSPSSLSASVGDRVTITCRASQDISSYLNWYQQKPGKAPKLLIYYTSRLHSGVPSRFSGSGSGTDFTFTISSLQPEDIATYYCQQGNTLPYTFGQGTKVEIK
notes: Anti-human IL-6 receptor antibody with the G1d constant region; also called IgG1 (IL6R-G1d)
FcγRIIb [10]
  KD(IIaH)/KD(IIb): 0.3
FcγRIIa type H [11]
  KD of the stronger of FcγRIIaR/FcγRIIaH binding of the variant / that of the parent polypeptide: 0.9
FcγRIIb [12]
  KD(IIaR)/KD(IIb): 0.4
FcγRIIIa type V
  Kd: 0.35 µM
FcγRIIa type H [13]
  Kd: 0.67 µM
FcγRIa
  Kd: 0.00032 µM
FcγRIIa type R
  Kd: 1 µM
FcγRIIb [14]
  Kd: 2.6 µM
FcγRIIb [15]
  KD(IIb) of the parent polypeptide/KD(IIb) of altered polypeptide: 1.2
